Molecular target: Full-length human SIRT1 (His-tagged) (human) (UniProt Q96EB6)
Test: cell-based or functional assay

Chain of Full-length human SIRT1 (His-tagged) (human) (Q96EB6 2-747): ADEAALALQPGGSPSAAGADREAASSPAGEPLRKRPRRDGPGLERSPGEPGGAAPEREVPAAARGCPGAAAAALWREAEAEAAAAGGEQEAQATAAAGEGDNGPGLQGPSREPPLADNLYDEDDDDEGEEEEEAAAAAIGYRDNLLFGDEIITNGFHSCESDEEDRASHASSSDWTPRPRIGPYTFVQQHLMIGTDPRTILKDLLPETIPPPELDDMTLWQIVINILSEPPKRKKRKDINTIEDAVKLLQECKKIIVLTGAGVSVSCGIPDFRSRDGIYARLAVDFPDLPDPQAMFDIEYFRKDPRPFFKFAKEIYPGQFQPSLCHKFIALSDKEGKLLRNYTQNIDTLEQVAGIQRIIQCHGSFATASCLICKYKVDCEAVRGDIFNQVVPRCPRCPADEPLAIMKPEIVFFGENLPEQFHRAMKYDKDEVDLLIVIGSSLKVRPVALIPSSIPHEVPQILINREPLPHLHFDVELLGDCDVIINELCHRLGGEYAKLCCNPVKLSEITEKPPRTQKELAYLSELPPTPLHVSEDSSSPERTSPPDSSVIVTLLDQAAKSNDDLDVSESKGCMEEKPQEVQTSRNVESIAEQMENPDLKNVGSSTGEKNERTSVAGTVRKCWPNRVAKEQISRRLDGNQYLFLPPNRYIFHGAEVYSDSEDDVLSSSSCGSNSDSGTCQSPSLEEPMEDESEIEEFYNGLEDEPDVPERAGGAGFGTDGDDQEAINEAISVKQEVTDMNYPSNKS

synthetic Tat (aa 1-72) gave a Tat concentration required for half maximal inhibition (IC50) of SIRT1; fluorescent deacetylation assay with acetylated p53 peptide (aa 379-382) of 3.5 µM.

From patent US20140030295A1
